The target in this assay is His6-tagged NBDY (human). Nature of the assay: SPR + ITC.

For “purified EDC4 WD40 domain (residues 72-528) (from UniProt Q6P2E9 72-528) (domain or fragment)”, the Kd came to 1 µM.

In general, Kd refers to the free concentration of one partner at which half of the binding sites on the other are occupied at equilibrium, for simple one-to-one binding.
